# Measured values reported in the supplement of paper PMC11316812.
# ± gives the standard deviation of the averaged measurements.
# How the values were obtained:
# [1] = tested on: MCF7; assay: percentage of EdU-negative (G0-arrested) nuclei per well, 72 h; higher = more G0 arrest; details: reference: sequence is the full UniProt precursor, the tested protein was the secreted form or ectodomain
# [2] = tested on: hTERT-HMEC; assay: as above; details: reference: sequence is the full UniProt precursor, the tested protein was the secreted form or ectodomain
# [3] = protein concentration 0.00925 µM
# [4] = protein concentration 0.0925 µM
# [5] = protein concentration 0.01425 µM
# [6] = protein concentration 0.1425 µM
# [7] = protein concentration 0.0225 µM
# [8] = protein concentration 0.03125 µM
# [9] = protein concentration 0.3125 µM
# [10] = protein concentration 0.0122857 µM
# [11] = protein concentration 0.122857 µM
# [12] = protein concentration 0.0225714 µM
# [13] = protein concentration 0.225714 µM
# 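Also: secreted proteins added to cultured cells, EdU pulse at the end, nuclei found by Hoechst imaging, EdU status from nuclear versus surrounding ring intensity ratio, PBS as neutral control.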
sequence,measurement,setting,value
MPPFLLLTCLFITGTSVSPVALDPCSAYISLNEPWRNTDHQLDESQGPPLCDNHVNGEWYHFTGMAGDAMPTFCIPENHCGTHAPVWLNGSHPLEGDGIVQRQACASFNGNCCLWNTTVEVKACPGGYYVYRLTKPSVCFHVYCGHFYDICDEDCHGSCSDTSECTCAPGTVLGPDRQTCFDENECEQNNGGCSEICVNLKNSYRCECGVGRVLRSDGKTCEDVEGCHNNNGGCSHSCLGSEKGYQCECPRGLVLSEDNHTCQVPVLCKSNAIEVNIPRELVGGLELFLTNTSCRGVSNGTHVNILFSLKTCGTVVDVVNDKIVASNLVTGLPKQTPGSSGDFIIRTSKLLIPVTCEFPRLYTISEGYVPNLRNSPLEIMSRNHGIFPFTLEIFKDNEFEEPYREALPTLKLRDSLYFGIEPVVHVSGLESLVESCFATPTSKIDEVLKYYLIRDGCVSDDSVKQYTSRDHLAKHFQVPVFKFVGKDHKEVFLHCRVLVCGVLDERSRCAQGCHRRMRRGAGGEDSAGLQGQTLTGGPIRIDWED [Q8WWZ8],percentage of EdU-negative,[1]; protein concentration 0.007 µM,25.2 ± 1.8%
same,percentage of EdU-negative,[1]; protein concentration 0.07 µM,27.3 ± 1.3%
same,percentage of EdU-negative,[2]; protein concentration 0.007 µM,5.2 ± 0.59%
same,percentage of EdU-negative,[2]; protein concentration 0.07 µM,5.67 ± 1.7%
MPPGPWESCFWVGGLILWLSVGSSGDAPPTPQPKCADFQSANLFEGTDLKVQFLLFVPSNPSCGQLVEGSSDLQNSGFNATLGTKLIIHGFRVLGTKPSWIDTFIRTLLRATNANVIAVDWIYGSTGVYFSAVKNVIKLSLEISLFLNKLLVLGVSESSIHIIGVSLGAHVGGMVGQLFGGQLGQITGLDPAGPEYTRASVEERLDAGDALFVEAIHTDTDNLGIRIPVGHVDYFVNGGQDQPGCPTFFYAGYSYLICDHMRAVHLYISALENSCPLMAFPCASYKAFLAGRCLDCFNPFLLSCPRIGLVEQGGVKIEPLPKEVKVYLLTTSSAPYCMHHSLVEFHLKELRNKDTNIEVTFLSSNITSSSKITIPKQQRYGKGIIAHATPQCQINQVKFKFQSSNRVWKKDRTTIIGKFCTALLPVNDREKMVCLPEPVNLQASVTVSCDLKIACV [Q53H76],percentage of EdU-negative,[1]; [3],24.3 ± 1.9%
same,percentage of EdU-negative,[1]; [4],28.4 ± 1.4%
same,percentage of EdU-negative,[2]; [3],4.11 ± 0.46%
same,percentage of EdU-negative,[2]; [4],6.06 ± 0.41%
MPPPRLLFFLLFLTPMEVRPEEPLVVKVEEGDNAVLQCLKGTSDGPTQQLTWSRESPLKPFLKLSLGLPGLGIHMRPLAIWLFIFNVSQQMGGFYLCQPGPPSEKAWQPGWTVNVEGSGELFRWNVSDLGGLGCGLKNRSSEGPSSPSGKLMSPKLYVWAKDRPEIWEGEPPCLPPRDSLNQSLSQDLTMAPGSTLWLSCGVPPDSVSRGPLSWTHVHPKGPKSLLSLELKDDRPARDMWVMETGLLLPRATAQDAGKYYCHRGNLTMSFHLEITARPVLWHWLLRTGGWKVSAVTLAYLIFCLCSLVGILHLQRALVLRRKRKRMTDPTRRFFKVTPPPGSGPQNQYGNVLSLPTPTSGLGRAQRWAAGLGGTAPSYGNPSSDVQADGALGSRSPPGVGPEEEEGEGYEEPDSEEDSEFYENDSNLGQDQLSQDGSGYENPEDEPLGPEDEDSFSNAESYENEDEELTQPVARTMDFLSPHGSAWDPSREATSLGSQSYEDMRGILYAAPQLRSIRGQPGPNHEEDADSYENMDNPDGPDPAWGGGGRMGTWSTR,percentage of EdU-negative,[1]; [5],25.2 ± 1.1%
same,percentage of EdU-negative,[1]; [6],26.2 ± 0.68%
same,percentage of EdU-negative,[2]; [5],5.66 ± 0.95%
same,percentage of EdU-negative,[2]; [6],8.73 ± 0.49%
MPPRGPASELLLLRLLLLGAATAAPLAPRPSKEELTRCLAEVVTEVLTVGQVQRGPCTALLHKELCGTEPHGCASTEEKGLLLGDFKKQEAGKMRSSQEVRDEEEEEVAERTHKSEVQEQAIRMQGHRQLHQEEDEEEEKEERKRGPMETFEDLWQRHLENGGDLQKRVAEKASDKETAQFQAEEKGVRVLGGDRSLWQGAERGGGERREDLPHHHHHHHQPEAEPRQEKEEASEREEKEVEQLEHLRDELKKVTETLGEQLRREG [I3L3R5],percentage of EdU-negative,[1]; [7],26.1 ± 0.53%
same,percentage of EdU-negative,[1]; protein concentration 0.225 µM,26.5 ± 0.58%
same,percentage of EdU-negative,[2]; [7],5.07 ± 1.4%
same,percentage of EdU-negative,[2]; protein concentration 0.225 µM,7.54 ± 0.57%
MPPSGPRGTLLLLPLLLLLLLRAVLAVPLERGAPNKEETPATESPDTGLYYHRYLQEVIDVLETDGHFREKLQAANAEDIKSGKLSRELDFVSHHVRTKLDELKRQEVSRLRMLLKAKMDAEQDPNVQVDHLNLLKQFEHLDPQNQHTFEARDLELLIQTATRDLAQYDAAHHEEFKRYEMLKEHERRRYLESLGEEQRKEAERKLEEQQRRHREHPKVNVPGSQAQLKEVWEELDGLDPNRFNPKTFFILHDINSDGVLDEQELEALFTKELEKVYDPKNEEDDMREMEEERLRMREHVMKNVDTNQDRLVTLEEFLASTQRKEFGDTGEGWETVEMHPAYTEEELRRFEEELAAREAELNAKAQRLSQETEALGRSQGRLEAQKRELQQAVLHMEQRKQQQQQQQGHKAPAAHPEGQLKFHPDTDDVPVPAPAGDQKEVDTSEKKLLERLPEVEVPQHL,percentage of EdU-negative,[1]; [8],24.1 ± 0.73%
same,percentage of EdU-negative,[1]; [9],26.9 ± 1.6%
same,percentage of EdU-negative,[2]; [8],4.94 ± 0.37%
same,percentage of EdU-negative,[2]; [9],7.16 ± 0.53%
MPRAPAPLYACLLGLCALLPRLAGLNICTSGSATSCEECLLIHPKCAWCSKEDFGSPRSITSRCDLRANLVKNGCGGEIESPASSFHVLRSLPLSSKGSGSAGWDVIQMTPQEIAVNLRPGDKTTFQLQVRQVEDYPVDLYYLMDLSLSMKDDLDNIRSLGTKLAEEMRKLTSNFRLGFGSFVDKDISPFSYTAPRYQTNPCIGYKLFPNCVPSFGFRHLLPLTDRVDSFNEEVRKQRVSRNRDAPEGGFDAVLQAAVCKEKIGWRKDALHLLVFTTDDVPHIALDGKLGGLVQPHDGQCHLNEANEYTASNQMDYPSLALLGEKLAENNINLIFAVTKNHYMLYKNFTALIPGTTVEILDGDSKNIIQLIINAYNSIRSKVELSVWDQPEDLNLFFTATCQDGVSYPGQRKCEGLKIGDTASFEVSLEARSCPSRHTEHVFALRPVGFRDSLEVGVTYNCTCGCSVGLEPNSARCNGSGTYVCGLCECSPGYLGTRCECQDGENQSVYQNLCREAEGKPLCSGRGDCSCNQCSCFESEFGKIYGPFCECDNFSCARNKGVLCSGHGECHCGECKCHAGYIGDNCNCSTDISTCRGRDGQICSERGHCLCGQCQCTEPGAFGEMCEKCPTCPDACSTKRDCVECLLLHSGKPDNQTCHSLCRDEVITWVDTIVKDDQEAVLCFYKTAKDCVMMFTYVELPSGKSNLTVLREPECGNTPNAMTILLAVVGSILLVGLALLAIWKLLVTIHDRREFAKFQSERSRARYEMASNPLYRKPISTHTVDFTFNKFNKSYNGTVD,percentage of EdU-negative,[1]; [7],25.2 ± 1.3%
same,percentage of EdU-negative,[1]; protein concentration 0.225 µM,26 ± 1.5%
same,percentage of EdU-negative,[2]; [7],5.13 ± 0.59%
same,percentage of EdU-negative,[2]; protein concentration 0.225 µM,7.6 ± 1.1%
MPRCRWLSLILLTIPLALVARKDPKKNETGVLRKLKPVNASNANVKQCLWFAMQEYNKESEDKYVFLVVKTLQAQLQVTNLLEYLIDVEIARSDCRKPLSTNEICAIQENSKLKRKLSCSFLVGALPWNGEFTVMEKKCEDA,percentage of EdU-negative,[1]; [7],27.2 ± 1.2%
same,percentage of EdU-negative,[1]; protein concentration 0.225 µM,25.6 ± 1.6%
same,percentage of EdU-negative,[2]; [7],5.21 ± 1.2%
same,percentage of EdU-negative,[2]; protein concentration 0.225 µM,4.56 ± 0.34%
MPRGFTWLRYLGIFLGVALGNEPLEMWPLTQNEECTVTGFLRDKLQYRSRLQYMKHYFPINYKISVPYEGVFRIANVTRLQRAQVSERELRYLWVLVSLSATESVQDVLLEGHPSWKYLQEVETLLLNVQQGLTDVEVSPKVESVLSLLNAPGPNLKLVRPKALLDNCFRVMELLYCSCCKQSSVLNWQDCEVPSPQSCSPEPSLQYAATQLYPPPPWSPSSPPHSTGSVRPVRAQGEGLLP [Q6ZMJ4],percentage of EdU-negative,[1]; [10],25.6 ± 1.6%
same,percentage of EdU-negative,[1]; [11],27.7 ± 1.3%
same,percentage of EdU-negative,[2]; [10],4.75 ± 0.29%
same,percentage of EdU-negative,[2]; [11],18.4 ± 1.3%
MPRLSLLLPLLLLLLLPLLPPLSPSLGIRDVGGRRPKCGPCRPEGCPAPAPCPAPGISALDECGCCARCLGAEGASCGGRAGGRCGPGLVCASQAAGAAPEGTGLCVCAQRGTVCGSDGRSYPSVCALRLRARHTPRAHPGHLHKARDGPCEFAPVVVVPPRSVHNVTGAQVGLSCEVRAVPTPVITWRKVTKSPEGTQALEELPGDHVNIAVQVRGGPSDHEATAWILINPLRKEDEGVYQCHAANMVGEAESHSTVTVLDLSKYRSFHFPAPDDRM [Q8WX77],percentage of EdU-negative,[1]; [12],27.4 ± 0.89%
same,percentage of EdU-negative,[1]; [13],29.2 ± 0.86%
same,percentage of EdU-negative,[2]; [12],4.78 ± 0.086%
same,percentage of EdU-negative,[2]; [13],4.6 ± 1.4%
MPRPAPARRLPGLLLLLWPLLLLPSAAPDPVARPGFRRLETRGPGGSPGRRPSPAAPDGAPASGTSEPGRARGAGVCKSRPLDLVFIIDSSRSVRPLEFTKVKTFVSRIIDTLDIGPADTRVAVVNYASTVKIEFQLQAYTDKQSLKQAVGRITPLSTGTMSGLAIQTAMDEAFTVEAGAREPSSNIPKVAIIVTDGRPQDQVNEVAARAQASGIELYAVGVDRADMASLKMMASEPLEEHVFYVETYGVIEKLSSRFQETFCALDPCVLGTHQCQHVCISDGEGKHHCECSQGYTLNADKKTCSALDRCALNTHGCEHICVNDRSGSYHCECYEGYTLNEDRKTCSAQDKCALGTHGCQHICVNDRTGSHHCECYEGYTLNADKKTCSVRDKCALGSHGCQHICVSDGAASYHCDCYPGYTLNEDKKTCSATEEARRLVSTEDACGCEATLAFQDKVSSYLQRLNTKLDDILEKLKINEYGQIHR,percentage of EdU-negative,[1]; [7],22.2 ± 2.4%
same,percentage of EdU-negative,[1]; protein concentration 0.225 µM,26.2 ± 2%
same,percentage of EdU-negative,[2]; [7],4.9 ± 0.095%
same,percentage of EdU-negative,[2]; protein concentration 0.225 µM,5.61 ± 0.67%
